Drawing on paper PMC10502629, this text covers percent conjugated for one substance.

The target in experiment [1] is SC-A0A4 (SpyCatcher fused to the N-terminus of the AaLS homologue A0A497XTC1 of Hydrogenivirga caldilitoris) (Hydrogenivirga caldilitoris). Nature of the experiment: covalent SpyCatcher/SpyTag conjugation read by SDS-PAGE; purified SC-scaffolds incubated with ST-OVAT in conventional buffer without any enzyme (4 °C, 16 h in Figure 3e); conjugates purified by SEC, SDS-PAGE with Coomassie staining; reactivity kept after heating at 75 °C or 5 x ….

The target of experiment [2] is SC-AaLS (SpyCatcher fused to the N-terminus of Aquifex aeolicus lumazine synthase) (Aquifex aeolicus). The experiment is described as above.

In the case of “ST-OVAT (SpyTag fused to the N-terminus of ovalbumin T epitopes) (peptide)”, the percent conjugated in experiment [1] and in experiment [2] was 100% throughout.
